The target of series [1] is T1, Kucore (Bacillus subtilis, UniProt O34859 1-253).
T1 sequence: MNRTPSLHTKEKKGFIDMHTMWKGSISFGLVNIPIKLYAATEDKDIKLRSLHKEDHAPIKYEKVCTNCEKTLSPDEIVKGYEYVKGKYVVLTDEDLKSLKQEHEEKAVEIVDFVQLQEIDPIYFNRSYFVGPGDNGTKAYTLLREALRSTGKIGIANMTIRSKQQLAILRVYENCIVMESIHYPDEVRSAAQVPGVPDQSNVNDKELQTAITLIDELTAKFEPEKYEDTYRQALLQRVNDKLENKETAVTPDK
Nature of the series: SPR. For orientation: SPR reads the build-up and loss of mass on a sensor chip optically.

Series [2] concerns the target T2, Kuwt (Bacillus subtilis, UniProt O34859 1-311).
T2 sequence: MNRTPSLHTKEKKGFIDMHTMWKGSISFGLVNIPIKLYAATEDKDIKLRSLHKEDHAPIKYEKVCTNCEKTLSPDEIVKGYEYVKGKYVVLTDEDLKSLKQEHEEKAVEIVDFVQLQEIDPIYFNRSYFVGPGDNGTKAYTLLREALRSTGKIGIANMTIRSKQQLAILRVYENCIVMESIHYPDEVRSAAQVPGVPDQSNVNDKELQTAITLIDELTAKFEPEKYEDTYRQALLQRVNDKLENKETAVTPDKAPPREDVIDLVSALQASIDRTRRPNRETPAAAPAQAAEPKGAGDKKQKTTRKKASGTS
Nature of the series: SPR.

In the next series the target is T3, Kuwt;LigD (Bacillus subtilis;Bacillus subtilis, UniProt O34859;O34398 1-311;1-611, |).
T3 sequence 1: T2 sequence
T3 sequence 2: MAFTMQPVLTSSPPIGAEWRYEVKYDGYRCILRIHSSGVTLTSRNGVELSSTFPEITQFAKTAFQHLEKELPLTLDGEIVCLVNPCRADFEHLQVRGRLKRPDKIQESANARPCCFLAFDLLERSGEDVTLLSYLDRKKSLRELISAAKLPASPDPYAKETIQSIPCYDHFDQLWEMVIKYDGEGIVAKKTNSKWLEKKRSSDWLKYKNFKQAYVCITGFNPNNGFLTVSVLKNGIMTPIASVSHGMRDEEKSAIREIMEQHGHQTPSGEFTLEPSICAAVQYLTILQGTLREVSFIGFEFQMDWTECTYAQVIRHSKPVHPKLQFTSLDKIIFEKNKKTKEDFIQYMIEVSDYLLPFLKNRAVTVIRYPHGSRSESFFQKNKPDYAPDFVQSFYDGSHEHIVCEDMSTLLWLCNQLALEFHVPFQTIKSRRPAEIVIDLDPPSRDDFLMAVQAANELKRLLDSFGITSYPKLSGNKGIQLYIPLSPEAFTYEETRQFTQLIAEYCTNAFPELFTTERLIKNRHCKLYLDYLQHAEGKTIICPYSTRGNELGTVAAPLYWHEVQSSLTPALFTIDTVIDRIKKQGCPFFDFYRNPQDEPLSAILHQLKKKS
Nature of the series: EMSA. In general terms: In EMSA bound probe runs differently from free probe, usually more slowly.

For series [3], the target named is T1, Kucore. Nature of the series: EMSA.
Series [4] addresses T2, Kuwt. Nature of the series: EMSA.

B1: 50 bp blunt DNA (SPR) (dsDNA)
DNA 1: CCTCTAGACCTGTACTACTCGAGAGATCGATCGACAGACGATGACTTAGC
DNA 2: GCTAAGTCATCGTCTGTCGATCGATCTCTCGAGTAGTACAGGTCTAGAGG
modifications: 5' biotin on one strand
As to B1, the Kd in the series with Kucore [1] stood at 9.3 nM; with Kuwt [2], 6.7 nM.

B2: 50 bp blunt DNA (EMSA, photobleaching) (dsDNA)
DNA 1: B1 DNA 1
DNA 2: B1 DNA 2
modifications: 5' 6-FAM on one strand (EMSA)
Consider B2, for which the binding result with Kuwt;LigD is recorded as “binds”.

B3: 50 bp DNA with 4 nt overhang (dsDNA)
DNA 1: B1 DNA 1
DNA 2: CTGAGCTAAGTCATCGTCTGTCGATCGATCTCTCGAGTAGTACAGGTCTAGAGG
modifications: 5' 6-FAM on one strand
Turning to B3, the binding result in the series with Kucore [3] and in the series with Kuwt [4] was “binds” each time.

What is called Kd is the equilibrium constant for the complex coming apart.

For the origin of these results see paper PMC7969030.
